In patent US9993536B2, “Peptides and combination of peptides and scaffolds for use in immunotherapy against renal cell carcinoma (RCC) and other cancers” (immatics biotechnologies GmbH, priority 2015, dated 2018):

Biological target: HLA-A*02:01 (Homo sapiens, UniProt P04439, D140Y/D185E/D98H/E176V/E277Q/G131W/G231S/I119V/I121R/I166T/I218V/L300P/L318F/N151K/N90K/P208A/P217A/Q86G/Q94H/R138H/R169H/T345S)
Test: MHC binding assay (UV-ligand exchange, beta2m ELISA)
Settings: peptide exchange yield, HLA-A*02:01, UV-ligand exchange
From the text: Candidate peptides for T cell based therapies according to the present invention were further tested for their MHC binding capacity (affinity). The individual peptide-MHC complexes were produced by UV-ligand exchange, where a UV-sensitive peptide is cleaved upon UV-irradiation, and exchanged with the peptide of interest as analyzed. Only peptide candidates that can effectively bind and stabilize the peptide-receptive MHC molecules prevent dissociation of the MHC complexes. To determine the yield of the exchange reaction, an ELISA was performed based on the detection of the light chain (β2m) of stabilized MHC complexes. The assay was performed as generally described in Rodenko et al. (Rodenko et al., 2006).
96 well MAXISorp plates (NUNC) were coated over night with 2 ug/ml streptavidin in PBS at room temperature, washed 4× and blocked for 1 h at 37° C. in 2% BSA containing blocking buffer. Refolded HLA-A*02:01/MLA-001 monomers served as standards, covering the range of 15-500 ng/ml. Peptide-MHC monomers of the UV-exchange reaction were diluted 100 fold in blocking buffer. Samples were incubated for 1 h at 37° C., washed four times, incubated with 2 ug/ml HRP conjugated anti-β2m for 1 h at 37° C., washed again and detected with TMB solution that is stopped with […]. Absorption was measured at 450 nm. Candidate peptides that show a high exchange yield (preferably higher than 50%, most preferred higher than 75%) are generally preferred for a generation and production of antibodies or fragments thereof, and/or T cell receptors or fragments thereof, as they show sufficient avidity to the MHC molecules and prevent dissociation of the MHC complexes.

## 4 (FLSQDIITV; listed as Homo sapiens) [compound 4]
  Peptide exchange (MHC class I binding score): +++ (≥50 = +++)

## 5 (YLYPNLTRL; listed as Homo sapiens) [compound 5]
  Peptide exchange (MHC class I binding score): ++ (≥20% = ++)

## 8 (GLASFKSFL; listed as Homo sapiens) [compound 8]
  Peptide exchange (MHC class I binding score): ++ (≥20% = ++)

## 10 (KLLQNNYGL; listed as Homo sapiens) [compound 10]
  Peptide exchange (MHC class I binding score): ++ (≥20% = ++)

## 11 (FIQTEAPKEV; listed as Homo sapiens) [compound 11]
  Peptide exchange (MHC class I binding score): ++ (≥20% = ++)

## 12 (ALDPSGNQLI; listed as Homo sapiens) [compound 12]
  Peptide exchange (MHC class I binding score): ++ (≥20% = ++)

## 13 (KIMAQILTV; listed as Homo sapiens) [compound 13]
  Peptide exchange (MHC class I binding score): +++ (≥50 = +++)

## 14 (ALLTETIFL; listed as Homo sapiens) [compound 14]
  Peptide exchange (MHC class I binding score): ++ (≥20% = ++)

## 17 (ILAQQVHAL; listed as Homo sapiens) [compound 17]
  Peptide exchange (MHC class I binding score): +++ (≥50 = +++)

## 18 (YVLDLAAKV; listed as Homo sapiens) [compound 18]
  Peptide exchange (MHC class I binding score): +++ (≥50 = +++)

## 19 (LLDPGSLQL; listed as Homo sapiens) [compound 19]
  Peptide exchange (MHC class I binding score): ++ (≥20% = ++)

## 21 (RLIQGDQILSV; listed as Homo sapiens) [compound 21]
  Peptide exchange (MHC class I binding score): ++ (≥20% = ++)

## 22 (FLSPPLPSV; listed as Homo sapiens) [compound 22]
  Peptide exchange (MHC class I binding score): +++ (≥50 = +++)

## 23 (YIQEVVQYI; listed as Homo sapiens) [compound 23]
  Peptide exchange (MHC class I binding score): +++ (≥50 = +++)

## 24 (FTLGTTVFL; listed as Homo sapiens) [compound 24]
  Peptide exchange (MHC class I binding score): +++ (≥50 = +++)

## 25 (LLVPAHLVAA; listed as Homo sapiens) [compound 25]
  Peptide exchange (MHC class I binding score): ++ (≥20% = ++)

## 27 (SLSDLLVSL; listed as Homo sapiens) [compound 27]
  Peptide exchange (MHC class I binding score): +++ (≥50 = +++)

## 28 (FIADLVVGL; listed as Homo sapiens) [compound 28]
  Peptide exchange (MHC class I binding score): ++ (≥20% = ++)

## 30 (QLFYTKIFL; listed as Homo sapiens) [compound 30]
  Peptide exchange (MHC class I binding score): ++ (≥20% = ++)

## 31 (VLFGLDPAVIKV; listed as Homo sapiens) [compound 31]
  Peptide exchange (MHC class I binding score): +++ (≥50 = +++)

## 33 (FIADVVEKI; listed as Homo sapiens) [compound 33]
  Peptide exchange (MHC class I binding score): ++ (≥20% = ++)

## 34 (ELNNQNFYL; listed as Homo sapiens) [compound 34]
  Peptide exchange (MHC class I binding score): +++ (≥50 = +++)

## 35 (VLHSLQTQL; listed as Homo sapiens) [compound 35]
  Peptide exchange (MHC class I binding score): ++ (≥20% = ++)

## 36 (SLFGKKYIL; listed as Homo sapiens) [compound 36]
  Peptide exchange (MHC class I binding score): ++ (≥20% = ++)

## 37 (VLAPVILML; listed as Homo sapiens) [compound 37]
  Peptide exchange (MHC class I binding score): ++ (≥20% = ++)

## 38 (VLLDTILQL; listed as Homo sapiens) [compound 38]
  Peptide exchange (MHC class I binding score): +++ (≥50 = +++)

## 39 (YLLNLNHLGL; listed as Homo sapiens) [compound 39]
  Peptide exchange (MHC class I binding score): +++ (≥50 = +++)

## 40 (YIQEHLLQI; listed as Homo sapiens) [compound 40]
  Peptide exchange (MHC class I binding score): +++ (≥50 = +++)

## 41 (GLLKTLQKL; listed as Homo sapiens) [compound 41]
  Peptide exchange (MHC class I binding score): ++ (≥20% = ++)

## 42 (VILDTGTIQL; listed as Homo sapiens) [compound 42]
  Peptide exchange (MHC class I binding score): ++ (≥20% = ++)

## 43 (YLKDELDEL; listed as Homo sapiens) [compound 43]
  Peptide exchange (MHC class I binding score): +++ (≥50 = +++)

## 44 (ALFSFVTAL; listed as Homo sapiens) [compound 44]
  Peptide exchange (MHC class I binding score): +++ (≥50 = +++)

## 45 (ALLGIPLTL; listed as Homo sapiens) [compound 45]
  Peptide exchange (MHC class I binding score): +++ (≥50 = +++)

## 46 (GLSEVLVQI; listed as Homo sapiens) [compound 46]
  Peptide exchange (MHC class I binding score): +++ (≥50 = +++)

## 47 (TLAEVRAVQEI; listed as Homo sapiens) [compound 47]
  Peptide exchange (MHC class I binding score): +++ (≥50 = +++)

## 48 (VVASNIMEV; listed as Homo sapiens) [compound 48]
  Peptide exchange (MHC class I binding score): ++ (≥20% = ++)

## 49 (VLIVEVPGV; listed as Homo sapiens) [compound 49]
  Peptide exchange (MHC class I binding score): +++ (≥50 = +++)

## 50 (SLSDHIVLL; listed as Homo sapiens) [compound 50]
  Peptide exchange (MHC class I binding score): ++ (≥20% = ++)

## 51 (NLWPMILTL; listed as Homo sapiens) [compound 51]
  Peptide exchange (MHC class I binding score): +++ (≥50 = +++)

## 52 (SILDAVQRV; listed as Homo sapiens) [compound 52]
  Peptide exchange (MHC class I binding score): ++ (≥20% = ++)

## 53 (FLLEIRQTL; listed as Homo sapiens) [compound 53]
  Peptide exchange (MHC class I binding score): ++ (≥20% = ++)

## 54 (ALVAKGLVQA; listed as Homo sapiens) [compound 54]
  Peptide exchange (MHC class I binding score): ++ (≥20% = ++)

## 55 (YLALILPVL; listed as Homo sapiens) [compound 55]
  Peptide exchange (MHC class I binding score): ++ (≥20% = ++)

## 56 (ILMDFSNSM; listed as Homo sapiens) [compound 56]
  Peptide exchange (MHC class I binding score): +++ (≥50 = +++)

## 57 (SLQKEILYL; listed as Homo sapiens) [compound 57]
  Peptide exchange (MHC class I binding score): ++ (≥20% = ++)

## 58 (FLVDFEQSHL; listed as Homo sapiens) [compound 58]
  Peptide exchange (MHC class I binding score): ++++ (≥75% = ++++)

## 59 (SLKNNVVSV; listed as Homo sapiens) [compound 59]
  Peptide exchange (MHC class I binding score): +++ (≥50 = +++)

## 60 (ILWKDIEYV; listed as Homo sapiens) [compound 60]
  Peptide exchange (MHC class I binding score): +++ (≥50 = +++)

## 61 (SLMGILLRI; listed as Homo sapiens) [compound 61]
  Peptide exchange (MHC class I binding score): ++ (≥20% = ++)

## 62 (VLAGPAFLVQL; listed as Homo sapiens) [compound 62]
  Peptide exchange (MHC class I binding score): +++ (≥50 = +++)

## 63 (GLIEDHFDVTV; listed as Homo sapiens) [compound 63]
  Peptide exchange (MHC class I binding score): ++ (≥20% = ++)

## 64 (LLAASVALA; listed as Homo sapiens) [compound 64]
  Peptide exchange (MHC class I binding score): ++ (≥20% = ++)

## 65 (IIYGGSVTGA; listed as Homo sapiens) [compound 65]
  Peptide exchange (MHC class I binding score): ++ (≥20% = ++)

## 66 (TLLKTIIKV; listed as Homo sapiens) [compound 66]
  Peptide exchange (MHC class I binding score): ++ (≥20% = ++)

## 67 (LLDVLAPLV; listed as Homo sapiens) [compound 67]
  Peptide exchange (MHC class I binding score): ++ (≥20% = ++)

## 68 (YVLTQPPSV; listed as Homo sapiens) [compound 68]
  Peptide exchange (MHC class I binding score): ++ (≥20% = ++)

## 69 (ILADLLPSL; listed as Homo sapiens) [compound 69]
  Peptide exchange (MHC class I binding score): ++ (≥20% = ++)

## 70 (SLTALRLLL; listed as Homo sapiens) [compound 70]
  Peptide exchange (MHC class I binding score): ++ (≥20% = ++)

## 71 (ALDGHLYAV; listed as Homo sapiens) [compound 71]
  Peptide exchange (MHC class I binding score): +++ (≥50 = +++)

## 72 (YSLEKVFGI; listed as Homo sapiens) [compound 72]
  Peptide exchange (MHC class I binding score): ++ (≥20% = ++)

## 73 (GLDGIPFTV; listed as Homo sapiens) [compound 73]
  Peptide exchange (MHC class I binding score): +++ (≥50 = +++)

## 74 (GLFHKQVTV; listed as Homo sapiens) [compound 74]
  Peptide exchange (MHC class I binding score): +++ (≥50 = +++)
